Assay [1] concerns the target T1, recombinant human CD137-Fc fusion protein (#838-4B-100, R&D Systems) (human, UniProt Q07011 24-186).
T1 construct: also called Fc-fusion of human CD137; not shown: Fc part of the bought fusion protein, not described
Briefly: SPR, CD137-Fc captured by anti-human Fc antibody on CM5 chip, 1:1 model. The method, then:
Binding affinities of the CD137-binding lipocalin mutein and the bispecific polypeptides of SEQ ID NO: 46 and SEQ ID NO: 47 to recombinant human CD137-Fc fusion protein (#838-4B-100, R&D Systems) were determined by Surface Plasmon Resonance using a Biacore T200 instrument (GE Healthcare) in analogy to Example 6. Prior to the SPR affinity assay, a CM5 sensor chip was derivatized with an anti-human Fc antibody using the Human Antibody Capture Kit (GE Healthcare # BR-1008-39) according to the manufacturer's instructions.
Four different concentrations (1000 nM, 200 nM, 40 nM and 8 nM) of the bispecific polypeptides were prepared in running buffer (10 mM HEPES, 150 mM NaCl, 0.05% v/v Surfactant P20, 3 mM EDTA, pH 7.4 (GE Healthcare)) and applied to the chip surface. Applying a flow rate of 30 μL/min, the sample contact time was 180 s and dissociation time was 600 s. All measurements were performed at 25° C. […] Prior to the protein measurements three regeneration cycles were performed for conditioning purposes. Data were evaluated with Biacore T200 Evaluation software (V 2.0). Double referencing was used and the 1:1 Binding model was used to fit the raw data.
(In general: Surface plasmon resonance follows binding to a sensor surface in real time, without labels.)

The target of assay [2] is T1, recombinant human CD137-Fc fusion …. Put plainly: ELISA, CD137-Fc coated, as described in Example 3. The source says:
The data was fitted with a 1:1 binding model with EC50 value and the maximum signal as free parameters, and a slope that was fixed to unity.
(ELISA stands for enzyme-linked immunosorbent assay.)

The target is the same in assay [3]. Briefly: SPR, biotinylated CD137-Fc captured on CAP chip, in analogy to Example 6. The method, then: Biotinlated CD137-Fc was immobilized on sensor chip and binding of the fusion polypeptides and lipocalin mutein was analyzed at different concentrations.
Assay [4] shares this target. Put plainly: ELISA, CD137-Fc coated, as described in Example 3. The source holds these as a separate data set.
For assay [5], the target named is T2, recombinant human GPC3 (R&D Systems #2119-GP-050/CF) (human, UniProt P51654 25-559).
T2 construct: also called Glypican-3; biotinylated human GPC3
T2 sequence (P51654 25-559 limits assumed): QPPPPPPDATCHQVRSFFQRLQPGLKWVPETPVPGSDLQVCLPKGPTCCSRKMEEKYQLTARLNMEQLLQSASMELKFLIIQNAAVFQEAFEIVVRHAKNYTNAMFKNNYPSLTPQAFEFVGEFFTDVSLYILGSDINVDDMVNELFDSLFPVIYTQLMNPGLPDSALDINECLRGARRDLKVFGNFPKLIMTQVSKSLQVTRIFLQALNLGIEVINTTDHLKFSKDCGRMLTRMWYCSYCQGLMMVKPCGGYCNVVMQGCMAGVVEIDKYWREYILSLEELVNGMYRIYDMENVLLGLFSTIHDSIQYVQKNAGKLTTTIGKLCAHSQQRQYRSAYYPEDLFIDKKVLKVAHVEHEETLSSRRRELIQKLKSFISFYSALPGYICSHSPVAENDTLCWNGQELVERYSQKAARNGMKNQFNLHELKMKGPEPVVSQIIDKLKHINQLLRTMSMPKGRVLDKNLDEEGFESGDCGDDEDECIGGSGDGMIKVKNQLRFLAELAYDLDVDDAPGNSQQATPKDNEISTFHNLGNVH
Put plainly: ELISA, GPC3 coated, anti-NGAL-HRP detection. The method, then: The target was dissolved in PBS (1 μg/mL) and coated overnight on microtiter plates at 4° C. The plate was washed after each incubation step with […] PBS supplemented with 0.1% (v/v) Tween 20 (PBS-T) five times. The plates were blocked with 2% BSA (w/v) in PBS-T for 1 h at room temperature and subsequently washed. Different concentrations of the lipocalin mutein (SEQ ID NO: 10) or the fusion polypeptides were added to the wells and incubated for 1 h at room temperature, followed by a wash step. Bound fusion protein or lipocalin mutein was detected after incubation with 1:1000 diluted anti-human NGAL antibody conjugated to HRP in PBS-T supplemented with 2% (w/v) BSA (PBS-TB). After an additional wash step, fluorogenic HRP substrate (QuantaBlu, Thermo) was added to each well and the fluorescence intensity was detected using a fluorescence microplate reader.
The result of the experiment is depicted in FIG. 2, together with the fit curves resulting from a 1:1 binding sigmoidal fit, where the EC50 value and the maximum signal were free parameters, and the slope was fixed to unity.

Assay [6] deals with T2, recombinant human GPC3 (R&D Systems …). Briefly: ELISA, GPC3 coated, anti-NGAL-HRP detection. The source says: GPC3 was coated on a microtiter plate and the tested molecules were titrated. Bound molecules were detected via an HRP-labeled anti-human NGAL-specific antibody as described in Example 12. The data was fitted with a 1:1 binding model with EC50 value and the maximum signal as free parameters, and a slope that was fixed to unity.
The source holds these as a separate data set.

Assay [7] has the same target. Put plainly: SPR, biotinylated GPC3 captured on CAP chip, 1:1 model, apparent affinity. The method, then:
Biotinlated GPC3 was immobilized on a sensor chip and binding of the fusion polypeptides and lipocalin mutein was analyzed at different concentrations.

For assay [8] the target is unchanged. Put plainly: ELISA, GPC3 coated, anti-NGAL-HRP detection. The source says:
GPC3 was coated on a microtiter plate and the tested molecules were titrated. […] The data was fitted with a 1:1 binding model with EC50 value and the maximum signal as free parameters, and a slope that was fixed to unity.
This is another data set of the same source.

The target is the same in assay [9]. Put plainly: SPR (Biacore T200), biotinylated GPC3 captured on CAP chip, 1:1 model, apparent affinity. Here is the method:
In the SPR affinity assay, biotinylated GPC3 was captured on a sensor chip (“CAP chip”) using the Biotin CAPture Kit (GE Healthcare): sensor Chip CAP is pre-immobilized with an ssDNA oligo. Undiluted Biotin CAPture Reagent (streptavidin conjugated with the complementary ss-DNA oligo) was applied at a flow rate of 2 μL/min for 300 s. For analysis of the lipocalin mutein, biotinylated GPC3 at a concentration of 1 μg/mL was used and 0.25 μg/mL of biotinylated GPC3 for the fusions proteins. The biotinylated GPC3 was applied for 300 s at a flow rate of 5 μL/min. GPC3 was biotinylated by incubation with EZ-Link® NHS-PEG4-Biotin (5-fold molar excess (Thermo Scientific)) during two hours at room temperature. The excess of non-reacted biotin reagent was removed by loading the reaction mixture onto a Zeba™ Spin Desalting Plate (Thermo Scientific). The reference channel was loaded with Biotin CAPture Reagent only.
Applying a flow rate of 30 μL/min, the sample contact time was 180 s and dissociation time was 1200 s. All measurements were performed at 25° C. […] Prior to the protein measurements three regeneration cycles were performed for conditioning purposes. Data were evaluated with Biacore T200 Evaluation software (V 2.0). Double referencing was used and the 1:1 Binding model was used to fit the raw data.

Read-outs that look alike come from different tables or passages of the source.

B1: CD137-binding lipocalin mutein of SEQ ID NO: 26 (designed binder)
chain: QDSTSDLIPAPPLSKVPLQQNFQDNQFHGKWYVVGQAGNIRLREDKDPIKMMATIYELKEDKSYDVTMVKFDDKKCMYDIWTFVPGSQPGEFTLGKIKSFPGHTSSLVRVVSTNYNQHAMVFFKFVFQNREEFYITLYGRTKELTSELKENFIRFSKSLGLPENHIVFPVPIDQCIDG
For B1, the figures for the Kd in [1] and in assay [3] were 0.0023 nM and 2.3 nM, respectively. The figures for the EC50 in [2] and in [4] were 0.43 nM and 0.28 nM, respectively.

B2: GPC3-binding lipocalin mutein of SEQ ID NO: 10 (designed binder)
chain: QDSTSDLIPAPPLSKVPLQQNFQDNQFQGKWYVVGRAGNVGLREDKDPPKMWATIYELKEDKSYDVTNVRFARKKCTYSIGTFVPGSQPGEFTLGQIKSEPGGTANLVRVVSTNYNQHAMVFFKEVYQNREIFFIILYGRTKELTSELKENFIRFSKSLGLPENHIVFPVPIDQCIDG
notes: hNGAL-based lipocalin mutein; also called GPC3 lipocalin mutein
As for B2, the EC50 in assay [5] amounted to 0.55 nM; in assay [6] it was 0.55 nM; in assay [8], 0.32 nM. Also, the Kd in assay [7] amounted to 0.033 nM; in assay [9] it was 0.012 nM.

Usually EC50 stands for the concentration that produces a half-maximal response.

The values above are taken from patent publication US20180148485A1 (Pieris, published 2018).
